Experimental findings from publication PMC8828441 are described below.

This assay concerns the target ADDomer-SpyTag (human adenovirus type 3). Put plainly: covalent SpyTag/SpyCatcher adduct on SDS-PAGE.

Turning to SpyCatcher, the stoichiometry N (copies per particle) was determined as 60.
